The values below come from PMC12354898, “Collagen VI microfibril structure reveals mechanism for molecular assembly and clustering of inherited pathogenic mutations” (Nature Communications, 2025).

For this test, the target named is T1, mini-collagen VI α1 chain, ColVIα1^C1C2 (human, UniProt P12109 566-1028).
T1 construct: human collagen VI α1 chain, UniProt P12109 aa 566-1028: nine Gly-X-Y triplets, coiled coil region, C1 and C2 vWA domains; Synthetic gene cloned into pHLSec with AgeI and XhoI; one chain of the disulphide-bonded heterotrimer α1α2α3^C1C2; also called α1 chain of α1α2α3^C1C2; source: Expi293F, co-transfected with the other two chains, secreted; in conditioned media, and purified (Strep-Tactin XT, …)
T1 sequence (looked up): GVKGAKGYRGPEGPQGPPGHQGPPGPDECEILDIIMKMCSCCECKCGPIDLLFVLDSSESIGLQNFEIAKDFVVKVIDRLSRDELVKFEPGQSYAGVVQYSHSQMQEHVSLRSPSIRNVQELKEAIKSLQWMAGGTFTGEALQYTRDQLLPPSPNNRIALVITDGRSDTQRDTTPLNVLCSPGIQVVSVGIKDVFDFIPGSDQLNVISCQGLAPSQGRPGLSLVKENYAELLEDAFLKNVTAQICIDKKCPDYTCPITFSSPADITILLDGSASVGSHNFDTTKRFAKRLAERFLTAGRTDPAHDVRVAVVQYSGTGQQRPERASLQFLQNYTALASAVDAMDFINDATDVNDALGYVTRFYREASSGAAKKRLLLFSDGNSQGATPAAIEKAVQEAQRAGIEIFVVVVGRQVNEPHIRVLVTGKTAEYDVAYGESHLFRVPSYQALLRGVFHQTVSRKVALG
The test is described as follows: pull-down; three chains co-expressed in Expi293F; sequential affinity steps from conditioned media (Strep-Tactin XT for Twin-Strep α2, Ni-Sepharose for His α1, anti-FLAG M2 for α3; Fig. 5f: Twin-strep then His-tag); eluates on reduced and non-reduced SDS-PAGE. To be noted: partners not purified.

B1: mini-collagen VI α2 chain, ColVIα2^C1C2 (domain or fragment, human, UniProt P12110 564-1019, looked up)
chain: GEPGPRGPRGVPGPEGEPGPPGDPGLTECDVMTYVRETCGCCDCEKRCGALDVVFVIDSSESIGYTNFTLEKNFVINVVNRLGAIAKDPKSETGTRVGVVQYSHEGTFEAIQLDDERIDSLSSFKEAVKNLEWIAGGTWTPSALKFAYDRLIKESRRQKTRVFAVVITDGRHDPRDDDLNLRALCDRDVTVTAIGIGDMFHEKHESENLYSIACDKPQQVRNMTLFSDLVAEKFIDDMEDVLCPDPQIVCPDLPCQTELSVAQCTQRPVDIVFLLDGSERLGEQNFHKARRFVEQVARRLTLARRDDDPLNARVALLQFGGPGEQQVAFPLSHNLTAIHEALETTQYLNSFSHVGAGVVHAINAIVRSPRGGARRHAELSFVFLTDGVTGNDSLHESAHSMRKQNVVPTVLALGSDVDMDVLTTLSLGDRAAVFHEKDYDSLAQPGFFDRFIRWIC
notes: human collagen VI α2 chain, UniProt P12110 aa 564-1019: nine Gly-X-Y triplets, coiled coil region, C1 and C2 vWA domains; Synthetic gene cloned into pHLSec with AgeI and XhoI; density for two N-linked glycans on this chain in the cryoEM map; also called α2 chain of α1α2α3^C1C2; source: Expi293F, co-transfected with the other two chains, secreted; in conditioned media, and purified (Strep-Tactin …)
B1: the binding result is listed as “binds”.
